Assay results taken from US9695461B2, “Method for adapting a hydrolytic enzyme to a component that stabilizes the hydrolytic enzyme” (Henkel AG & Co. KGaA, priority 2011, dated 2017).
Positions count from the first letter of the chain named. In names and notes the source's numbering stands.

B1: S166: protease according to SEQ ID NO: 3 used as the hydrolytic enzyme (starting enzyme) (protein, listed as Bacillus lentus)
chain: AQSVPWGISRVQAPAAHNRGLTGSGVKVAVLDTGISTHPDLNIRGGASFVPGEPSTQDGNGHGTHVAGTIAALNNSIGVLGVAPSAELYAVKVLGADGEGAISSIAQGLEWAGNNGMHVANLSLGSPSPSATLEQAVNSATSRGVLVVAASGNSGASSISYPARYANAMAVGATDQNNNRASFSQYGAGLDIVAPGVNVQSTYPGSTYASLNGTSMATPHVAGAAALVKQKNPSWSNVQIRNHLKNTATSLGSTNLYGSGLVNAEAATR
B2: S166Y: protease of SEQ ID NO: 3 with amino acid substitution S166Y in the count according to SEQ ID NO: 1 (protein, listed as Bacillus lentus)
chain: B1 chain with S160Y
B3: S166G: protease of SEQ ID NO: 3 with amino acid substitution S166G in the count according to SEQ ID NO: 1 (protein, listed as Bacillus lentus)
chain: B1 chain with S160G
B4: S166G/Q191R: protease of SEQ ID NO: 3 with amino acid substitutions S166G and Q191R in the count according to SEQ ID NO: 1 (protein, listed as Bacillus lentus)
chain: B1 chain with S160G, Q185R
B5: A187D/F189R: protease of SEQ ID NO: 3 with amino acid substitutions A187D and F189R in the count according to SEQ ID NO: 1 (protein, listed as Bacillus lentus)
chain: B1 chain with A181D, F183R
B6: S166V: protease of SEQ ID NO: 3 with amino acid substitution S166V in the count according to SEQ ID NO: 1 (protein, listed as Bacillus lentus)
chain: B1 chain with S160V
B7: F189R: protease of SEQ ID NO: 3 with amino acid substitution F189R in the count according to SEQ ID NO: 1 (protein, listed as Bacillus lentus)
chain: B1 chain with F183R
B8: Q191R: protease of SEQ ID NO: 3 with amino acid substitution Q191R in the count according to SEQ ID NO: 1 (protein, listed as Bacillus lentus)
chain: B1 chain with Q185R
B9: S166A: protease of SEQ ID NO: 3 with amino acid substitution S166A in the count according to SEQ ID NO: 1 (protein, listed as Bacillus lentus)
chain: B1 chain with S160A
B10: A187D: protease of SEQ ID NO: 3 with amino acid substitution A187D in the count according to SEQ ID NO: 1 (protein, listed as Bacillus lentus)
chain: B1 chain with A181D

Assays:
[1] = tested on: protease according to SEQ ID NO: 3; assay: Inhibition measurements in the biochemical test (Example 2); conditions: 0.1 M Tris/HCl pH 8.6 with Brij35, suc-AAPF-pNA
Procedure: The variants S166V and S166G/Q191R as well as the starting enzyme according to SEQ ID NO: 3 were expressed in a suitable expression system, further purified by means of ion exchange chromatography and prepared for the activity determinations in 0.1 M Tris/HCl buffer pH 8.6, comprising Brij35. To the formulations were added increased amounts of the reversible inhibitor 3-HPBA or BMA (see Tables 3 and 4) and the proteolytic residual activity of the respective protease was determined from the release of the chromophore para-nitroaniline (pNA) from the substrate suc-L-Ala-L-Ala-L-Pro-L-Phe-p-nitroanilide (suc-AAPF-pNA) as described above.

[2] = tested on: protease according to SEQ ID NO: 3; assay: Relative proteolytic activity with reversible inhibitor in liquid surfactant preparation (Example 1); type: biochemical; conditions: 50% conc. surfactant preparation, 0.92 mM AAPF, 25° C., pH 8.6, relative to same protease without inhibitor; for relative activity, 3-HPBA: 3-HPBA in amount inhibiting starting enzyme by 20-40%; for relative activity, 4-FPBA: 4-FPBA in amount inhibiting starting enzyme by 20-40%; for relative activity, Boric acid: boric acid in amount inhibiting starting enzyme by 20-40%; for relative activity, BMA: benzylmalonic acid in amount inhibiting starting enzyme by 20-40%
Description: The relative activity to be determined in process step c) of the hydrolytic enzyme modified in process step b) is given by [measured activity of the hydrolytic enzyme modified in process step b) in the presence of the component that stabilizes the hydrolytic enzyme] divided by [measured activity of the hydrolytic enzyme modified in process step b) in the absence of the component that stabilizes the hydrolytic enzyme] multiplied by 100.
The relative activity of the starting enzyme to be determined in process step c) is given by [measured activity of the starting enzyme in the presence of the component that stabilizes the hydrolytic enzyme] divided by [measured activity of the starting enzyme in the absence of the component that stabilizes the hydrolytic enzyme] multiplied by 100.
The nucleic acid sequence of the hydrolytic enzyme present on a plasmid was modified individually or in combination as indicated in Tables 1 and 2 using site directed mutagenesis by means of specific, adapted primers using a Phusion Hot Start Polymerase at the positions S166, A187, F189 or Q191 in the counting according to SEQ ID NO: 1, and the resulting variants were transformed into a suitable host. Active clones were selected by means of a protease-sensitive medium and the DNA sequence was sequenced after isolation of the plasmid for identification purposes. The modified proteases were expressed in the Bacillus host and prepared for the activity determination.
The activity was determined in a liquid preparation that was constituted as follows (all data in wt %): 0.3-0.5% xanthan, 0.2-0.4% defoamer, 6-7% glycerin, 0.3-0.5% ethanol, 4-7% FAEOS (fatty alcohol ether sulfate), 24-28% non-ionic surfactants, 1-2% sodium citrate (dihydrate), 2-4% soda, 14-16% cocoanut fatty acids, 0.5% HEDP (1-hydroxyethane-(1,1-diphosphonic acid)), 0-0.4% PVP (polyvinyl pyrrolidone) 0-0.5% optical brightener, 0-0.001% % colorant, the remainder being demineralized water.
To a 50% conc. liquid preparation of the liquid surfactant preparation were added 0.92 mM AAPF. The reversible inhibitor to be tested was also comprised in the required amount to inhibit the starting enzyme by 20-40%. 20 μl of the respective protease (starting enzyme as well as modified protease variants) were added and the proteolytic activity determined from the release of the chromophore para-nitroaniline (pNA) from the substrate suc-L-Ala-L-Ala-L-Pro-L-Phe-p-nitroanilide (suc-AAPF-pNA). The protease cleaves the substrate and releases pNA. The released pNA causes the extinction at 410 nm to increase; the change in extinction as a function of time is a measure of the enzymatic activity (see Del Mar et al., 1979). The measurement was carried out at a temperature of 25° C., at pH 8.6 and a wavelength of 410 nm.
The measured activity was compared with the activity of a reference formulation of the same protease sample without inhibitor and the respective relative activities of the modified proteases and the starting enzyme were determined. […] The results are presented in the following Tables 1 and 2 (the relative activities are each given).

Row | Molecule | relative activity, 3-HPBA ([2]; Table 1) [%] | relative activity, 4-FPBA ([2]; Table 1) [%] | relative activity, Boric acid ([2]; Table 1) [%] | relative activity, BMA ([2]; Table 2) [%] | relative activity, Boric acid ([2]; Table 2) [%] | also measured
1 | B1 | 83 | 75 | 83 | 81 | 79 | proteolytic residual activity, 3-HPBA ([1]; 3-HPBA 0.05 mM): 93%; proteolytic residual activity, 3-HPBA ([1]; 3-HPBA 0.1 mM): 89%; proteolytic residual activity, 3-HPBA ([1]; 3-HPBA 0.5 mM): 81%; proteolytic residual activity, 3-HPBA ([1]; 3-HPBA 1 mM): 65%; proteolytic residual activity, 3-HPBA ([1]; 3-HPBA 1.5 mM): 56%; proteolytic residual activity, BMA ([1]; BMA 0.05 Gew.-%): 96%; proteolytic residual activity, BMA ([1]; BMA 0.5 Gew.-%): 95%; proteolytic residual activity, BMA ([1]; BMA 1.0 Gew.-%): 93%; proteolytic residual activity, BMA ([1]; BMA 1.7 Gew.-%): 94%; proteolytic residual activity, BMA ([1]; BMA 2.5 Gew.-%): 74%; proteolytic residual activity, BMA ([1]; BMA 3.3 Gew.-%): 73%; proteolytic residual activity, BMA ([1]; BMA 4.0 Gew.-%): 78%; proteolytic residual activity, BMA ([1]; BMA 5.0 Gew.-%): 64%
2 | B2 | 58 | 100 | 68 | – | – | –
3 | B3 | – | – | – | 80 | 65 | –
4 | B4 | – | – | – | 35 | 57 | proteolytic residual activity, BMA ([1]; BMA 0.05 Gew.-%): 88%; proteolytic residual activity, BMA ([1]; BMA 0.5 Gew.-%): 55%; proteolytic residual activity, BMA ([1]; BMA 1.0 Gew.-%): 42%; proteolytic residual activity, BMA ([1]; BMA 1.7 Gew.-%): 35%; proteolytic residual activity, BMA ([1]; BMA 2.5 Gew.-%): 38%; proteolytic residual activity, BMA ([1]; BMA 3.3 Gew.-%): 32%; proteolytic residual activity, BMA ([1]; BMA 4.0 Gew.-%): 36%; proteolytic residual activity, BMA ([1]; BMA 5.0 Gew.-%): 32%
5 | B5 | – | – | – | 43 | 37 | –
6 | B6 | 53 | 71 | 59 | – | – | proteolytic residual activity, 3-HPBA ([1]; 3-HPBA 0.05 mM): 84%; proteolytic residual activity, 3-HPBA ([1]; 3-HPBA 0.1 mM): 87%; proteolytic residual activity, 3-HPBA ([1]; 3-HPBA 0.5 mM): 65%; proteolytic residual activity, 3-HPBA ([1]; 3-HPBA 1 mM): 51%; proteolytic residual activity, 3-HPBA ([1]; 3-HPBA 1.5 mM): 40%
7 | B7 | – | – | – | 80 | 53 | –
8 | B8 | – | – | – | 63 | 76 | –
9 | B9 | 83 | 61 | 76 | – | – | –
10 | B10 | – | – | – | 79 | 47 | –
